Drawing on publication PMC4930401, this text covers Kd for one substance.

This assay has as its target BF520.1 (human (infant BF520)). Briefly: BLI.

Usually Kd stands for the concentration at which binding is half-saturated.

In the case of “BF520.W14.E3 native-like SOSIP trimer (complex)”, the Kd was found to be 8 nM.
